From PMC3374083 (Cell Death and Differentiation, 2012)

B1: monomeric human Fas receptor extracellular domain (domain or fragment)
chain: QVTDINSKGLELRKTVTTVETQNLEGLHHDGQFCHKPCPPGERKARDCTVNGDEPDCVPCQEGKEYTDKAHFSSKCRRCRLCDEGHGLEVEINCTRTQNTKCRCKPNFFCNSTVCEHCDPCTKCEHGIIKECTLTSNTKCKEEGSRSN
B2: human Fas ligand, recombinant (ligand)
chain: QIGHPSPPPEKKELRKVAHLTGKSNSRSMPLEWEDTYGIVLLSGVKYKKGGLVINETGLYFVYSKVYFRGQSCNNLPLSHKVYMRNSKYPQDLVMMEGKMMSYCTTGQMWARSSYLGAVFNLTSADHLYVNVSELSLVNFEESQTFFGLYKL

What was measured:
[1] = molecular target: B2; assay: SPR
[2] = molecular target: B1; assay: cell-based or functional assay
[3] = molecular target: B1; assay: cell-based or functional assay; remark: listed apart in the source

| Binder | Kd [1] | DNA fragmentation (oligonucleosomes in the cytosol) in Jurkat cells, 8 h, EC50 [2] | Jurkat cell killing (cell-viability assay), EC50 [3] |
| --- | --- | --- | --- |
| B1 | 14 nM |  |  |
| B2 |  | 2.8 nM | 7.1 nM |
